B1: library; numbered along this chain (parent)
chain: MAAAGGARLLRAASAVLGGPAGRWLHHAGSRAGSSGLLRNRGPGGSAEASRSLSVSARARSSSEDKITVHFINRDGETLTTKGKVGDSLLDVVVENNLDIDGFGACEGTLACSTCHLIFEDHIYEKLDAITDEENDMLDLAYGLTDRSRLGCQICLTKSMDNMTVRVPETVADARQSIDVGKTS

Variants of: B1
Assay: scaled log2 fold change in cell abundance, elesclomol vs control (0 = silent mean, 1 = nonsense mean) (scaled log2 ratio); higher = higher viability under elesclomol (loss of FDX1 cuproptosis function)
Conditions: glucose 10 mM
[1] = with ABC1 FDX1 KO, elesclomol 5 nM, 14 days
[2] = with HEK293T FDX1 KO, elesclomol 40 nM, 11 days
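Also: variant abundance is its share of total variant reads in each endpoint sample, from next-generation sequencing of the integrated ORF PCR-amplified out of genomic DNA.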

| Variant | scaled log2 fold change [1] | scaled log2 fold change [2] |
| --- | --- | --- |
| L127T | 0.249 | -0.0113 |
| L127V | 0.0908 | 0.603 |
| L127Q | 0.446 | 0.00947 |
| L127W | 0.322 | 0.0443 |
| L127P | 0.814 | 1.12 |
| L127S | 0.442 | 0.345 |
| L127Y | 0.24 | -0.426 |
| L127R | 0.785 | 0.151 |
| M137S | -0.337 | -0.153 |
| M137F | -0.075 | -0.7 |
| M137I | 0.0941 | 0.499 |
| M137W | -0.244 | 1.1 |
| M137T | 0.14 | -0.403 |
| M137A | -0.189 | 0.285 |
| M137N | 0.119 |  |
| M137V | -0.0968 | -0.154 |
| M137G | -0.0982 | -0.171 |
| M137Q | 0.0471 | -0.244 |
| M137C | -0.596 | -0.635 |
| M137P | -0.0177 | -0.842 |
| M137Y | -0.108 | 1.02 |
| M137E | -0.366 | 0.879 |
| M137R | -0.477 | -0.0264 |
| M137H | 0.073 | -0.384 |

| Variant | scaled log2 fold change [1] | scaled log2 fold change [2] |
| --- | --- | --- |
| M137D | 0.813 | 0.152 |
| M137K | -0.121 | 1.33 |
| M137L | 0.182 | 1.39 |
| N135L | 0.151 | 0.661 |
| N135A | -0.0811 | -0.437 |
| N135G | 0.0707 | -0.645 |
| N135F | 0.44 | -0.599 |
| N135E | -0.00674 | 0.0823 |
| N135R | -0.532 | 1.02 |
| N135D | 0.117 | 0.905 |
| N135P | 0.887 | 0.821 |
| N135Q | 0.215 | -0.339 |
| N135S | 0.055 | -0.262 |
| N135T | -0.162 | -0.382 |
| N135C | 0.138 |  |
| N135I | -0.261 | 0.197 |
| N135Y | 0.0894 | 0.75 |
| N135V | 0.161 | 0.0375 |
| N135W | -0.118 | 0.554 |
| N135K | -0.148 | -0.129 |
| N135M | -0.00864 | -0.104 |
| E134Q | 0.525 | -0.44 |
| E134S | 0.926 | 0.571 |
| E134P | 1.22 | 1.01 |

| Variant | scaled log2 fold change [1] | scaled log2 fold change [2] |
| --- | --- | --- |
| E134V | 0.638 | 0.419 |
| E134I | 1.03 | 0.865 |
| E134T | 1.02 | 0.834 |
| E134G | 1.21 | 0.684 |
| E134W | 1.07 | 1.32 |
| E134A | 0.628 | 0.137 |
| E134Y | 0.977 | 2.18 |
| E134L | 1.1 | 1.21 |
| E134M | 0.946 | 0.587 |
| E134K | 1.1 | 1.28 |
| E134D | 0.911 | 1.21 |
| E134N | 1.16 | 0.994 |
| E134F | 1.23 | 1.01 |
| E134R | 1.23 | 1.26 |
| E134C | 0.676 | 1.13 |
| E134H | 0.345 | 0.225 |
| A129F | 0.044 | -0.227 |
| A129E | -0.447 | -0.333 |
| A129R | 0.464 | -0.0758 |
| A129L | 0.598 | 1.27 |
| A129I | 0.162 | -0.508 |
| A129G | 0.16 |  |
| A129M | -0.0116 |  |
| A129K | -0.557 | -0.17 |

| Variant | scaled log2 fold change [1] | scaled log2 fold change [2] |
| --- | --- | --- |
| A129Y | -0.538 |  |
| A129W | -0.08 | 1.07 |
| A129S | 0.0531 | -0.075 |
| A129D | -0.23 | 0.439 |
| A129V | 0.217 | 0.196 |
| A129P | 0.272 | 0.0261 |
| A129H | -0.541 |  |
| A129C | -0.31 | 0.555 |
| D132K | -0.0835 | 0.943 |
| D132S | -0.409 | 1.12 |
| D132M | -0.07 | -0.451 |
| D132A | -0.35 | -0.0723 |
| D132Q | 0.014 | 0.0254 |
| D132C | -0.0894 | -0.0904 |
| D132L | 0.217 | -0.447 |
| D132F | -0.0218 | -0.336 |
| D132H | 0.104 | -1.46 |
| D132W | -0.0682 | -0.335 |
| D132P | -0.221 | -0.681 |
| D132E | 0.299 | 0.371 |
| D132I | -0.789 |  |
| D132N | -0.0637 |  |
| D132T | -0.0728 | -0.282 |
| D132G | -0.0468 | 0.9 |

| Variant | scaled log2 fold change [1] | scaled log2 fold change [2] |
| --- | --- | --- |
| D132V | 0.152 | -0.737 |
| D132R | -0.373 | -0.177 |
| D132Y | 0.176 | 1.12 |
| E133M | -0.152 | -0.547 |
| E133L | -0.204 | 0.0198 |
| E133I | 0.458 | -0.339 |
| E133D | 0.319 | 0.453 |
| E133G | -0.151 | -0.168 |
| E133K | 0.105 | 0.342 |
| E133T | 0.0196 | 0.842 |
| E133Q | -0.239 | -0.406 |
| E133H | -0.148 | -0.764 |
| E133S | -1.5 |  |
| E133F | -0.18 | -0.56 |
| E133Y | -0.281 | 0.898 |
| E133C | 0.215 | -0.346 |
| E133A | -0.216 | 1.27 |
| E133W | -1.03 | 0.0959 |
| E133V | 0.153 | -0.0517 |
| E133P | -0.087 | 0.243 |
| E133N | -0.113 | -0.0813 |
| E133R | 0.274 | 0.00388 |
